Literature values in paper PMC11446229.
Where two headings read alike, the source gives them in different places. Blank lines part the entries; values can stand above or below the substance they belong to.

Columns and labels:
IscS (Escherichia coli) [1] = biological target: IscS (Escherichia coli) (UniProt P0A6B7)
SufS (Escherichia coli) = SufS (Escherichia coli) (UniProt P77444); assay: surface plasmon resonance
SufS (Bacillus subtilis) = SufS (Bacillus subtilis) (UniProt O32164)
IscS (Escherichia coli) [2] = biological target: IscS (Escherichia coli) (UniProt P0A6B7); remark: listed apart in the source

Chain of IscS (Escherichia coli) (P0A6B7 whole entry): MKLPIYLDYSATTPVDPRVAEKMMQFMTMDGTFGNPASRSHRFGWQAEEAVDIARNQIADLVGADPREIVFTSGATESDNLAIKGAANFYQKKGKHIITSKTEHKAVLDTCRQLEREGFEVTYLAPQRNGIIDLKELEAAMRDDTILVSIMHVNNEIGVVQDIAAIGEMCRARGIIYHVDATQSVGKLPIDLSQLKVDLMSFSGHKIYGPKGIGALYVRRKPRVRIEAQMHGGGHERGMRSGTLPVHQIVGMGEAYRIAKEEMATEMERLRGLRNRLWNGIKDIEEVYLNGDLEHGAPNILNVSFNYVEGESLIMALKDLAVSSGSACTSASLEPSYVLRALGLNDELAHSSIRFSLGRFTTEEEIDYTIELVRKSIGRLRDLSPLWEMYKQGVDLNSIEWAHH
Chain of SufS (Bacillus subtilis) (O32164 whole entry): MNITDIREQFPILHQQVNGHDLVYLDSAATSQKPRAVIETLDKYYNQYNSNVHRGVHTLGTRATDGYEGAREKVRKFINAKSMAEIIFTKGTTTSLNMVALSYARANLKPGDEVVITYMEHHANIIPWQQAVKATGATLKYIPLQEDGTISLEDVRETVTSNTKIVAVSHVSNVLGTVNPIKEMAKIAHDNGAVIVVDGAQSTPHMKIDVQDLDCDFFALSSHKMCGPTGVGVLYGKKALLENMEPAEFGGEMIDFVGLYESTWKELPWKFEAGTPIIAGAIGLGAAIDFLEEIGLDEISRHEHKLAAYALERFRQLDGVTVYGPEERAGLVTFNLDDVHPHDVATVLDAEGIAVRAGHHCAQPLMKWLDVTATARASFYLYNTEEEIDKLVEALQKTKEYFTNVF
Chain of SufU (O32163 whole entry): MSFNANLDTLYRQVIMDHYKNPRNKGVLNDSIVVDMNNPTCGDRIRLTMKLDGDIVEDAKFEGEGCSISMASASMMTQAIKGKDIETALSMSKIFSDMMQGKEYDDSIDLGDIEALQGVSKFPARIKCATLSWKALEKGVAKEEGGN
Chain of SufS (Escherichia coli) (P77444 whole entry): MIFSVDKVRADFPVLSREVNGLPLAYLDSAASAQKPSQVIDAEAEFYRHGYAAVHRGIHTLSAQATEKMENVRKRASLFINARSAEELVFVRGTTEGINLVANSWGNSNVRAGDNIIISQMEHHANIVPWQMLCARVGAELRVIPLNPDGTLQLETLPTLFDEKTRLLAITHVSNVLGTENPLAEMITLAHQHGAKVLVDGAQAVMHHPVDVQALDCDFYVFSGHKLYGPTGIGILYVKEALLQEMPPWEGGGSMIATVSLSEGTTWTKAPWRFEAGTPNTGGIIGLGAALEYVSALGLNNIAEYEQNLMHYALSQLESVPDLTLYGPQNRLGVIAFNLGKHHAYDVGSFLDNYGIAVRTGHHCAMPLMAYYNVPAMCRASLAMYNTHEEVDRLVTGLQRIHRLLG
Chain of CyaY (P27838 whole entry): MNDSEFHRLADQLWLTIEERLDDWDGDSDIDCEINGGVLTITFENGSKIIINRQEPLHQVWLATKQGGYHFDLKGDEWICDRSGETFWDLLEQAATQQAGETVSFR
Chain of SufE (P76194 whole entry): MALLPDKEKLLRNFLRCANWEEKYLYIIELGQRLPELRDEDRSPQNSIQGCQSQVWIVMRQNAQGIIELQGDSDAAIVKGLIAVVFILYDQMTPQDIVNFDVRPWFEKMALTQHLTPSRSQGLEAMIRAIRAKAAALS
Chain of TusA (P0A890 whole entry): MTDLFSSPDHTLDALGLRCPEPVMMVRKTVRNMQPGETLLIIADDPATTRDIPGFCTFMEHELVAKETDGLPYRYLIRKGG

Substance: CyaY (from UniProt P27838)
Kd (IscS (Escherichia coli) [1]): 23 µM

Substance: SufE (from UniProt P76194)
Kd (SufS (Escherichia coli)): 0.36 µM

Kd (SufS (Bacillus subtilis)): 3 µM
Substance: SufU (from UniProt O32163)

Substance: TusA (from UniProt P0A890)
Kd (IscS (Escherichia coli) [2]): 8 µM
